Assay: yeast display, Sf9 membrane polyspecificity reagent, FACS + sequencing; frameworks hold sequencing errors
Summary of the method: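 Galactose-induced (36–48 hours) yeast carrying a synthetic nanobody display library were exposed to 10% biotinylated, detergent-solubilized Sf9 membrane reagent at 4 °C for 1 hour. FACS followed streptavidin microbead enrichment, using low and high (top ~1%) gates for expression (anti-HA) and reagent binding (streptavidin). Colony PCR, MiSeq 2 × 250 sequencing and CDR-length filtering followed. Labels for polyreactivity reflect the gate of origin.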
With “QVQLQESGGGLVQAGGSLRLSCAASCTISQEDWMGWYRQAPCKEREFVASIGLGSNTNYADSLKGRFTISRDNAKNTVYLKMNSLKPEYTAVYYCASEENLAYYFKYYYWGQGTQVTVSS” the “polyreactivity (PSR sort gate)” value was “low polyreactivity”.
With “QVQLQESGGGLVQAGGSLRLSCAASDYIFPYKPKGWYRQAPGKEREFVATIATGGSTNYADSVKGRFTISRDNAKNTVYLQMNSLKPEDTAVYYCAVYGGPAGYLTYRGQGTQVTVSS” the “polyreactivity (PSR sort gate)” value was “high polyreactivity”.
For “QVQLQESGGGLVQAGGSLRLSCAASGFIFARNYIGWYRQAPGKERELVAGIGEGASTNYADSVKGRFTISRDNAKNTVYLQMNSLEPEDTAVYYCAVGDTVLGYHYYWGQGTQVTVSN”, the “polyreactivity (PSR sort gate)” value was “low polyreactivity”.
With “QVQLQESGGGLVQAGGSLRLSCAASGFIFARNYMGWNRQAPGKERELVAGIGVGASTNYADSVKGRFTISRDNAKNTVYLQINSLEPEDTAVYYCAVGDTVLGYHYYWGQGTQVTVSI” the “polyreactivity (PSR sort gate)” value was “low polyreactivity”.
In the case of “QVQLQESGGGLVQAGGSLRLSCAASGHISIKLQRGWYRAAPGKERELVATINLGAITYYADSVKGLITNSRDNAKNTVYLQLNSLKPEDTAVYYCAARWRSGFTSGDYWGQGTQVTVSS”, the “polyreactivity (PSR sort gate)” value is reported as “low polyreactivity”.
For “QVQLQESGGGLVQAGGSLRLSCAASGIIFDNPNMGWYRQAPGKERELVATINSGATTNYADSVKGRFTISRDNENNTVYLQMNSLIPEDTAVYYCAVDLSPTYFYFWGQGTQVTVSS”, the “polyreactivity (PSR sort gate)” value was “high polyreactivity”.
For “QVQLQESGGGLVQAGGSLRLSCAASGNIFLGDTMGWYRQAPGKEREFVAGIARGGNPYYADSVKGRFTISRNNAKNTVFLQKNSLKPEDTAVHYCAVQRSHASDYNYWGQGTQVTVSS”, the “polyreactivity (PSR sort gate)” value was “low polyreactivity”.
For “QVQLQESGGGLVQAGGSLRLSCAASGNISVTGFMGWYRQAPGKERELVASIGIGGTTYYADSVKGRFSISRDNAKNTVYVQMNSLKPEDTAVYYCAARYLYYAYSYWGQGTQVTVRS”, the “polyreactivity (PSR sort gate)” value was “low polyreactivity”.
In the case of “QVQLQESGGGLVQAGGSLRLSCAASGNISVTGFMGWYRQAPVKERELVASIGIGGTTYYADSVKGRFSISRDNAKNTVYLQMNSLKPEDTAVYYCAARYLYYAYSYWGQGSQVTVSS”, the “polyreactivity (PSR sort gate)” value is reported as “low polyreactivity”.
In the case of “QVQLQESGGGLVQAGGSLRLSCAASGSIFADVQMGWYRQAPGKERELVASINFRGTTSYYADSVKGRFTISRDNAKNTVYLQMSSLKPEETEVYYCAVGRSEGGDFAYWGQGTHVTVSS”, the “polyreactivity (PSR sort gate)” value is reported as “low polyreactivity”.
In the case of “QVQLQESGGGLVQAGGSLRLSCAASGSIFDGFNMGWYRQAQGKEREFVAAISYGASTYYADSVKGRFTVSRDNAKNSVYLQMNSLKPEDTAVYYCAVYDELYHVLVYWGRGTQVTVSS”, the “polyreactivity (PSR sort gate)” value is reported as “low polyreactivity”.
In the case of “QVQLQESGGGLVQAGGSLRLSCAASGSIFDYVSMGWYRQAPGEERELVVTITLGSNTYYADSVKGRFTISSDIAKNSVYLQMNSLNPEDTAVYYCAASALWGYVYPYWGLGTQVTVSS”, the “polyreactivity (PSR sort gate)” value is reported as “high polyreactivity”.
In the case of “QVQLQESGGGLVQAGGSLRLSCAASGSIFHLHIMCWYRQAPGKESESVAAISYGTSTYYADSVKGRFTICRDNAKNTVYLQMNSPKPDDTAVYYCAALFLVSKHHHYWGEGTQVTVSS”, the “polyreactivity (PSR sort gate)” value is reported as “low polyreactivity”.
In the case of “QVQLQESGGGLVQAGGSLRLSCAASGSIFVSVTMGWYRQAPGKERELGASIGRGSTTNHADSVKGRFTISRDNAKNIVYLLMNSLKPEDTAVYYCAALESYGKYHGYWGQGTLVTVSS”, the “polyreactivity (PSR sort gate)” value is reported as “low polyreactivity”.
For “QVQLQESGGGLVQAGGSLRLSCAASGSIFYVYGMGWYRLAPGKVRELVAGINAGTNTNYADSVRGRFTISRDNAKNTVHLQMTSLNPEETAVYYCAADGNGYQAHEYWGQGTQVTVSS”, the “polyreactivity (PSR sort gate)” value was “high polyreactivity”.
For “QVQLQESGGGLVQAGGSLRLSCAASGSISGPQVMGWYRQAPGKEREFVAAINVGANTYYADNVKGRFTISRDNAKNTVYLQMTSLKPEDTAVYYCAAVYYGDIGHEYWGQGTQVTVSC”, the “polyreactivity (PSR sort gate)” value was “low polyreactivity”.
In the case of “QVQLQESGGGLVQAGGSLRLSCAASGSISHYIFMCWYRQSPGKEREFVAGIGYGGTTNYADSVKGRFTISRDNAKNTVYLQMISLTPEDTAMYYCAAREATEFYLYYWGQGTQVTVSS”, the “polyreactivity (PSR sort gate)” value is reported as “low polyreactivity”.
For “QVQLQESGGGLVQAGGSLRLSCAASGSISHYIFMGWYRQAPGKEREFVAGIGYGGTTNYADSVKGRFTISRDNAINTVYLQMNSLKPEDTAMYYCAAREATEFYLYYWGQGTQVTVSS”, the “polyreactivity (PSR sort gate)” value was “low polyreactivity”.
In the case of “QVQLQESGGGLVQAGGSLRLSCAASGSISRLDYMGWYRQASGKERELVAAIDNGSTTYYADSVKGRLTISRDNAKYTVYLQMNSLKTEDTAVYFCAAVRGRGGTHAYWGQGTQVTVSG”, the “polyreactivity (PSR sort gate)” value is reported as “low polyreactivity”.
In the case of “QVQLQESGGGLVQAGGSLRLSCAASGSISSRDAMGWYRQAPGKEREFVATIASGTTTYYADSVKGSFTISRDNAENTVYLQTNSLKPEDTAVYYCAAPTIQIYPFYYWGQGTQVTVSC”, the “polyreactivity (PSR sort gate)” value is reported as “high polyreactivity”.
In the case of “QVQLQESGGGLVQAGGSLRLSCAASGSITRYYDMGWYRQAPGKEREFVAGISGGAITYYADSVKGRFTISRDNAKNTVYLQMNSLKPEDTAVYYCAADTGVYQYHSYWGQGTQVTVSS”, the “polyreactivity (PSR sort gate)” value is reported as “low polyreactivity”.
With “QVQLQESGGGLVQAGGSLRLSCAASGSIYDGFNMGWYRQAPGKEREFVAAISYGASTYYADSVKGRFTVSRDNAKNSVYLQMNSLKPEDTAVYYCAVYDELYHVLVYWGRGTQVTVSS” the “polyreactivity (PSR sort gate)” value was “low polyreactivity”.
With “QVQLQESGGGLVQAGGSLRLSCAASGSNFKVVEMGLYRQAPAKDREFVATIGEGGNTYYADSVKGRFTISRDNAKNTVYLQMNSLKPEDTAVYFYAVVLGTSYRYTYWGQGTQVTVSS” the “polyreactivity (PSR sort gate)” value was “low polyreactivity”.
With “QVQLQESGGGLVQAGGSLRLSCAASGTIFRISDMGSYRQAPGKELEFVAAITYGANTYYADSGKGRFTISRDNAKNTVYLQMNSLKPEDTAVYYCAVPPVKETILDYWGQGTQVTVSS” the “polyreactivity (PSR sort gate)” value was “low polyreactivity”.
For “QVQLQESGGGLVQAGGSLRLSCAASGTISPLPAMGWYRQAPGKERDFVAGIDTGAITNYADSVKGRFTISRDNAKHTVYLQMNSLKPEETAVYYCADFPAAYDYYERYYTYWGQGTQVTVSS”, the “polyreactivity (PSR sort gate)” value was “low polyreactivity”.
In the case of “QVQLQESGGGLVQAGGSLRLSCAASGTISPLPAMGWYRQAPGKEREFVAGIDTGAITNYADSVKGRFTISRDNGKNTVYLQMNSLNPEDTAVYYCAVFRGAYDYYEGYYTYWGQGTQVTVSS”, the “polyreactivity (PSR sort gate)” value is reported as “low polyreactivity”.
For “QVQLQESGGGLVQAGGSLRLSCAASGVIFARNYMGWYRQAPGKERELVAGIGVGASTNYADSVKGRFTISRDNAKNTVYLQMNRLEPEDTAVYYCAVVDTVLGYHYYWGQGTQVTVSN”, the “polyreactivity (PSR sort gate)” value was “low polyreactivity”.
For “QVQLQESGGGLVQAGGSLRLSCAASGYIFPRIDMGWYRQAPGKEREFDAGISYDAITNYADSVKGRFTISLDNAKNTVYLQMNSLKPEDTAVYYCAVSYYGTPLFTYWGQGTQVTVSS”, the “polyreactivity (PSR sort gate)” value was “high polyreactivity”.
In the case of “QVQLQESGGGLVQAGGSLRLSCAASGYISLAQTIGWFRQAPGKEREFVASIALGSSTYYTDSVKGSFTISRDNAKTTVYLQMNSLKPDDTAVYYCAARVGASYAHDYWGQGTQVTVSS”, the “polyreactivity (PSR sort gate)” value is reported as “low polyreactivity”.
In the case of “QVQLQESGGGLVQAGGSLRLSCAASGYISLAQTIGWYRQAPGKEREFVASIALGSRTYYTDSVKGSFTISRDNAKTTVYLQMNSLKAEDTAVYYCAARVGASYAHDYWGQGTQVTVSS”, the “polyreactivity (PSR sort gate)” value is reported as “low polyreactivity”.
For “QVQLQESGGGLVQAGGSLRLSCAASGYISLAQTIGWYRQAPGKEREFVASIALGSSTYYTDSVKGSFTISRDNANTPVYLQMNSLKPEDTAVYYCAARVGASYAHDYWGQGTQVTVSC”, the “polyreactivity (PSR sort gate)” value was “low polyreactivity”.
With “QVQLQESGGGLVQAGGSLRLSCAASGYISQSSVMGWYRQASGKEREFVASISYGATTYYADSVKGRFTISRDNAKNTVYLQTNSPKPEDTAVYYCAVWVKRGFSHRYWGQGTQVTVSS” the “polyreactivity (PSR sort gate)” value was “high polyreactivity”.
In the case of “QVQLQESGGGLVQAGGSLRLSCAASGYISYFVGMAWYRQAPGKEREFVASIADGSNTYYADSVKGRFTISRDNAKNTVYLQRNSLKPEDTAVFYCAVEDSWTYRFDYWGQGTLVTVSS”, the “polyreactivity (PSR sort gate)” value is reported as “high polyreactivity”.
In the case of “QVQLQESGGGLVQAGGSLRLSCAASSNHSTLDVMGWYRQAPGKEREIVASIGSGGITNYADSVKGRFTISRDNAKNTVYLQMNSLKPEDTAVYYFAVLNQAYTDLIYWGQGTQVTVSS”, the “polyreactivity (PSR sort gate)” value is reported as “high polyreactivity”.
For “QVQLQESGGGLVQAGGSLRLSCAATGTIFTDRFMGWYLQAPGKERELVACISPGTSTNYADSVKGRFTISRDNAKNTVYLKINSLKPEDTAVYYCAADWSTGNNLPYWGQGTQVTVSS”, the “polyreactivity (PSR sort gate)” value was “high polyreactivity”.
For “QVQLQESGGGLVQAGGSLRLSCAATGTIFTDRFMGWYRQAPGKERELVAGISPGTSTNYADSVKGRFTISRDNAKNTVYLQMNSLKPEDTAVYYCAADWSTGNTLPYWGQGTQVTVSS”, the “polyreactivity (PSR sort gate)” value was “high polyreactivity”.
For “QVQLQESGGGLVQAGGSLRLSCASSGSIYDDTYMGWYRQAPGKERELVATIDSGSTTNYADSVKRRITISRDNAKNTVYLQMNSLKPEDTAVYYCAAADSHIDYFDYWGQGTQVTVSS”, the “polyreactivity (PSR sort gate)” value was “low polyreactivity”.
In the case of “QVQLQESGGGLVQAGGSLRLTCAASGYISYLQSMGLYRQAPVKERELVAGITLGTTTYNADSVKGRFTISPDNVQNTVYLQMNSLKPEYTAVYYCAVAVGHYPEFWYWGQGTQVTMSS”, the “polyreactivity (PSR sort gate)” value is reported as “high polyreactivity”.
In the case of “QVQLQESGGGLVQAGGSLRMSFAASGNIFDADIMGWYRPAPGKEPELVASITDGRRTNYADSVKGRYTIRRDSEKNTVYLQMNSLKPEDTAVYYCAAIAYPVVPTFVDFDSDYFHWGQGTHVTVSS”, the “polyreactivity (PSR sort gate)” value is reported as “high polyreactivity”.
With “QVQLQESGGGLVQAGGSLRPRCAAGGTIFVSVNRGWYRHAPGEEREFVASITQGATTNYADSLIGRFTISRDNAKNTVYLQMNCQKPEDTAVYYCAVHESGGITFTYWGQGTQVTVSS” the “polyreactivity (PSR sort gate)” value was “high polyreactivity”.
In the case of “QVQLQESGGGLVQAGGSLRPSCAASGSISDGVPMGCYRQAPGEERELVATTVLGATTNYADSVKGRFTISRGNAKNTVYLQMNSLKPEETAVYYCAAPLRYDKGFSYWGQGTQVTVSS”, the “polyreactivity (PSR sort gate)” value is reported as “low polyreactivity”.
